According to publication doi:10.1101/2024.02.27.582283:

Molecular target: SET-26::GFP, excessively sumoylated (ulp-2 loss of activity background) (C. elegans) (UniProt Q9U263)
Assay: co-IP

Sequence of UniProt Q9U263 (Q9U263 whole entry): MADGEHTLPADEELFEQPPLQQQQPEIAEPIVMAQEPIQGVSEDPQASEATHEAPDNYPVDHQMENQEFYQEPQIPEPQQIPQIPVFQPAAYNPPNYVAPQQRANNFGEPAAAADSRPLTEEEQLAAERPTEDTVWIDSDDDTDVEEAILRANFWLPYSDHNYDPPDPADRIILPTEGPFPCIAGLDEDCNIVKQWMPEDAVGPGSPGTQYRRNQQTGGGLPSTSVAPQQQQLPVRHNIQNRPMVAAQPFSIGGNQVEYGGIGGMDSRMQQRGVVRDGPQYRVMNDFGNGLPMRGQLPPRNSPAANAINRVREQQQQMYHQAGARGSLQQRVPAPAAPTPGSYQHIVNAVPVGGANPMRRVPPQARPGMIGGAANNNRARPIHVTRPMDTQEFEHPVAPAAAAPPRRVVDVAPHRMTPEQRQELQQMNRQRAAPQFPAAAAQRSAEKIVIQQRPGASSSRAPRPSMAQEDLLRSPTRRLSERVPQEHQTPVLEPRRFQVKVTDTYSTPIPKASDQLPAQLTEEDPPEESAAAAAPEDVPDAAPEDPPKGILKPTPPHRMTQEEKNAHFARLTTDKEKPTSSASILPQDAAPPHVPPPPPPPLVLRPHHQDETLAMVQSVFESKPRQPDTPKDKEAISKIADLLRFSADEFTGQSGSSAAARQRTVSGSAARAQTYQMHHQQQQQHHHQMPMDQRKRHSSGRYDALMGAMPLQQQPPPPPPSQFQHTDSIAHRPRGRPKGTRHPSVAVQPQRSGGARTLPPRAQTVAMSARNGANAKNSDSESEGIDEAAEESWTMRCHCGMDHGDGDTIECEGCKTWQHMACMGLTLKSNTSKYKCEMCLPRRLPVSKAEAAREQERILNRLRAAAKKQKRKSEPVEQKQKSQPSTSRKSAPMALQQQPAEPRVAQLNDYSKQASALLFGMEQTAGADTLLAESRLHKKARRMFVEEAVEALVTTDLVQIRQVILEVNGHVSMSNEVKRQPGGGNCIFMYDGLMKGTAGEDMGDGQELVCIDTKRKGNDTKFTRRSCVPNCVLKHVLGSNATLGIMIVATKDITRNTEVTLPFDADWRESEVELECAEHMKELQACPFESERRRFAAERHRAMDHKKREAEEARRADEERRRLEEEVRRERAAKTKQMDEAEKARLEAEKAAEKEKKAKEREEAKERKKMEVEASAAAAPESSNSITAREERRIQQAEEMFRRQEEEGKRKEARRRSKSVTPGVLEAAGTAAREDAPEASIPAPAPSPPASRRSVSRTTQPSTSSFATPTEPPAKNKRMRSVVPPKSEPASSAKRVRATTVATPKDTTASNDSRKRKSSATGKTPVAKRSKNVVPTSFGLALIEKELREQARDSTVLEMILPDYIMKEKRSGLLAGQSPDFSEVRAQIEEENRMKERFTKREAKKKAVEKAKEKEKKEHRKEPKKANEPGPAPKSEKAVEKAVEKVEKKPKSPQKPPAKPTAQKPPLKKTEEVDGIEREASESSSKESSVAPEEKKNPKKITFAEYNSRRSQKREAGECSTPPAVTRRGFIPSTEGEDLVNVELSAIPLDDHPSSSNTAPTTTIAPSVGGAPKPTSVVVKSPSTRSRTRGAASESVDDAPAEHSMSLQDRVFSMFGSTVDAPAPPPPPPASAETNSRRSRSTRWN

For “Histone H3 trimethylated at lysine 4 (H3K4me3) (from UniProt P08898 1-136) (natural protein)”, which reduction of binding compared with WT is on record?
The reduction of binding compared with WT was 55%.
